Reference: PMC10107573

Biological target: recombinant biotinylated SARS-CoV-2 spike RBD, wild type (SARS-CoV-2) (UniProt P0DTC2)
Assay: BLI
Details: bispecific antibody

| Substance | Kd |
| --- | --- |
| bispecific antibody BI-1C2C (IgG-ScFv format, from mAbs 13-1C and 6-2C) (from UniProt P01857) | 2.16 nM |
| bispecific antibody BI-5B2C (IgG-ScFv format: 10-5B IgG with 6-2C ScFv) (from UniProt P01857) | 4.89 nM |
| bispecific antibody BI-2C1C (IgG-ScFv format, from mAbs 6-2C and 13-1C) (from UniProt P01857) | 1.04 nM |
| bispecific antibody BI-2C5B (IgG-ScFv format: 6-2C IgG with 10-5B ScFv) (from UniProt P01857) | 4.71 nM |
